Results reported in paper PMC5812716 (2018).
Where two headings read alike, the source gives them in different places. One block for each binder: values may come before it.

Key:
MukB [1] = target: T1, MukB (E. coli, UniProt P22523 1-1486); experiment: FP
T1 chain: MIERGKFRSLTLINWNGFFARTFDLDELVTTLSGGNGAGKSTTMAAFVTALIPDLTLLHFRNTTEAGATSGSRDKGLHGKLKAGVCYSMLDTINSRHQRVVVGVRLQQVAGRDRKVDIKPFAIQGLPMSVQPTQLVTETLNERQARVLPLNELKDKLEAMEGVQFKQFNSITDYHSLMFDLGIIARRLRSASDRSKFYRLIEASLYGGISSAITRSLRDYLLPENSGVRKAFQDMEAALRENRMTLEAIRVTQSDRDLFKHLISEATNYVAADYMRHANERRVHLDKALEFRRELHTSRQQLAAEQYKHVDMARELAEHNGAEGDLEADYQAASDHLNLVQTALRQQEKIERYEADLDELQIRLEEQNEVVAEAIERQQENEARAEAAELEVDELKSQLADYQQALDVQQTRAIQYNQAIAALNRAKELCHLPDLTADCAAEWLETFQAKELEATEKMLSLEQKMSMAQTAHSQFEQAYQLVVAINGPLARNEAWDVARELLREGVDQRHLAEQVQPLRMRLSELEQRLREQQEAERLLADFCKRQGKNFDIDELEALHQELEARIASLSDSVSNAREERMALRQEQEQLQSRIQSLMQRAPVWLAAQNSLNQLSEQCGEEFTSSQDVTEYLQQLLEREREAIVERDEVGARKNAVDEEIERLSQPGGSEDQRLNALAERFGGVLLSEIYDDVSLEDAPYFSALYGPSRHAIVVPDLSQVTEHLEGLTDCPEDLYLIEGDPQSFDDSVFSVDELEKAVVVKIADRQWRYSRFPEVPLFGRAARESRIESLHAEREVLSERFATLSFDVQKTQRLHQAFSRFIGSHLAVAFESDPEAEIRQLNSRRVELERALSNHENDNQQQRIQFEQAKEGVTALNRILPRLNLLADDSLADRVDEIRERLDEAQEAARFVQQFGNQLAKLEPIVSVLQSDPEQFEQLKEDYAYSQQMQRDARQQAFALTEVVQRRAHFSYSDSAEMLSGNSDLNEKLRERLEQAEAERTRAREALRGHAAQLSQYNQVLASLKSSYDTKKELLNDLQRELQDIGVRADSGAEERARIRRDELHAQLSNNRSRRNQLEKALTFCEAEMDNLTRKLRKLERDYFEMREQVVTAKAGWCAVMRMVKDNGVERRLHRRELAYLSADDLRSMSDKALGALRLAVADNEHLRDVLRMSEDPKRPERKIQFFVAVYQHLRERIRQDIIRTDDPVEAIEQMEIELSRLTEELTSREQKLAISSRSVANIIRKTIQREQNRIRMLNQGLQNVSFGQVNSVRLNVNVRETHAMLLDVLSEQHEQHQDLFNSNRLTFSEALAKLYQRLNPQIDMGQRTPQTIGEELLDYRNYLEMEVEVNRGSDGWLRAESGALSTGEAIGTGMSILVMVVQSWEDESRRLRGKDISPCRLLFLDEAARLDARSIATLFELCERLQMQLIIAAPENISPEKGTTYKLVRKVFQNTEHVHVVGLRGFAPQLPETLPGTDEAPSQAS

MukB [2] = target: T1, MukB

B1: Cy5 labelled FC2 (domain or fragment)
chain: AIDMDKNRVFAQRLRQSVQTYFDEPWALTYANADRLLDMRDEEMALRDEEVTGELPEDLEYEEFNEIREQLAAIIEEQLAVYKTRQVPLDLGLVVREYLSQYPRARHFDVARIVIDQAVRLGVAQADFTGLPAKWQPINDYGAKVQAHVIDKY
modifications: Cy5 label (site not stated)
Kd (MukB [1]): 23 nM

B3: Cy5 labelled FN2 (domain or fragment)
chain: MSEFSQTVPELVAWARKNDFSISLPVDRLSFLLAVATLNGERLDGEMSEGELVDAFRHVSDAFEQTSETIGVRANNAINDMVRQRLLNRFTSEQAEGNAIYRLTPLGIGITDYYIRQREFSTLRLSMQLSIVAGELKRAADAAEEGGDEFHWHRNVYAPLKYSVAEIFDSIDLTQRLMDEQQQQVKDDIAQLLNKDWRAAISSCELLLSETSGTLRELQDTLEAAGDKLQANLLRIQDATMTHDDLHFVDRLVFDLQSKLDRIISWGQQSIDLWIGYDRHVHKFIRT
modifications: Cy5 label (site not stated)
Kd (MukB [2]): 26 nM

Next, values leading:

Kd (MukB [1]): 21 nM
B2: Cy5 labelled FN3 (domain or fragment)
chain: REFSTLRLSMQLSIVAGELKRAADAAEEGGDEFHWHRNVYAPLKYSVAEIFDSIDLTQRLMDEQQQQVKDDIAQLLNKDWRAAISSCELLLSETSGTLRELQDTLEAAGDKLQANLLRIQDATMTHDDLHFVDRLVFDLQSKLDRIISWGQQSIDLWIGYDRHVHKFIRT
modifications: Cy5 label (site not stated)

Kd (MukB [2]): 10 nM
B4: Cy5 labelled FN10 (domain or fragment)
chain: MSEFSQTVPELVAWARKNDFSISLPVDRLSFLLAVATLNGERLDGEMSEGELVDAFRHVSDAFEQTSETIGVRANNAINDMVRQRLLNRFTSEQAEGNAIYRLTPLGIGITDYYIRQREFSTLRLSMQLSIVAGELKRAADAAEEGGDEFHWHRNVYAPLKYSVAEIFDSIDLTQRLMDEQQQQVKDDIAQLLNKDWRAAISSCELLLSETSGTLRELQDTLEAAGDKLQANLLRIQDATMTHDDLHFVDRLVFDLQSKLDRIISWGQQSIDLWIGYDRHVHKFIRTAIDMDKNRVFAQRLRQSVQTYFDEPWALTYANADRLLDMRDEEMALRDEEVTGELPED
modifications: Cy5 label (site not stated)
